Target: human DNAJB6, cytosolic isoform B (human) (UniProt O75190)
Assay: native gel or EMSA + other: negative stain electron microscopy; DNAJB6 oligomers fractionated by GraFix (5-30% sucrose, 0-0.2% glutaraldehyde gradient, 20 mM NaPO4, 150 mM NaCl, pH 8.0, 4 °C); fraction 5 analysed by blue native-PAGE and negative stain EM with single particle reconstruction

human DNAJB6, cytosolic isoform B, O75190-2 1-241 (natural protein; other documents disagree on this pair), sequence (O75190 other isoform, or with tags, fused parts or gaps): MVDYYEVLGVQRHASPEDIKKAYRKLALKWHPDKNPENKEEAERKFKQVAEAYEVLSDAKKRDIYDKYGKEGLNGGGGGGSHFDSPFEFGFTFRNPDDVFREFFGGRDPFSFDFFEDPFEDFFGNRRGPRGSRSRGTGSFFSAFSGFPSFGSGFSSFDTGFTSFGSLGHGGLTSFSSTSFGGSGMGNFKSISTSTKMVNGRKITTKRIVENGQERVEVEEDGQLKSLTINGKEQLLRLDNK

stoichiometry N: 20 subunits
Substance: human DNAJB6, cytosolic isoform B, O75190-2 1-241 (natural protein; other documents disagree on this pair)
